The results in this text go back to publication doi:10.1101/2021.02.18.431627 (bioRxiv, 2021).

Series [1] concerns the target GlyR-α3L-eGFP (glycine receptor α3, long splice variant L, N-terminally tagged with eGFP) (mouse) (UniProt Q91XP5). The experiment in a line: molecular brightness by raster image correlation spectroscopy.
Series [2] shares this target. The series is described as follows: subunit counting by stepwise photobleaching.
Series [3] deals with the molecule itself. The experiment in a line: subunit counting by stepwise photobleaching.
Series [4] concerns the molecule itself. The experiment in a line: molecular brightness by raster image correlation spectroscopy.

Molecule “GlyR-α3K-mCherry (glycine receptor α3, short splice variant K, N-terminally tagged with mCherry)” had a N (α3L-eGFP subunits per heteropentamer, in a few cells) in series [1] of 1. In series [2], the N (α3L-eGFP subunits per heteropentamer) lay within 2 to 4, the heteropentameric fraction (fit with a 2nd order binomial) came to 23%, the heteropentameric fraction (fit with a 3rd order binomial) is 36% and the heteropentameric fraction (fit with a 4th order binomial) came to 67%.

B1: GlyR-α3L-eGFP (glycine receptor α3, long splice variant L, N-terminally tagged with eGFP) (receptor, mouse, UniProt Q91XP5 34-464, looked up)
chain: ARSRSAPMSPSDFLDKLMGRTSGYDARIRPNFKGPPVNVTCNIFINSFGSIAETTMDYRVNIFLRQKWNDPRLAYSEYPDDSLDLDPSMLDSIWKPDLFFANEKGANFHEVTTDNKLLRIFKNGNVLYSIRLTLTLSCPMDLKNFPMDVQTCIMQLESFGYTMNDLIFEWQDEAPVQVAEGLTLPQFLLKEEKDLRYCTKHYNTGKFTCIEVRFHLERQMGYYLIQMYIPSLLIVILSWVSFWINMDAAPARVALGITTVLTMTTQSSGSRASLPKVSYVKAIDIWMAVCLLFVFSALLEYAAVNFVSRQHKELLRFRRKRKNKTEAFALEKFYRFSDTDDEVRESRFSFTAYGMGPCLQAKDGVVPKGPNHAVQVMPKSPDEMRKVFIDRAKKIDTISRACFPLAFLIFNIFYWVIYKILRHEDIHQQQD
Usually stoichiometry N stands for the number of molecules, sites or subunits per partner or assembly. For B1, the results for the “stoichiometry N” value in series [3] and in series [4] were 5 and about 5, respectively.
